# T1: NRF1 DD-DBD (Homo sapiens, UniProt Q16656 49-288)
# T1 sequence: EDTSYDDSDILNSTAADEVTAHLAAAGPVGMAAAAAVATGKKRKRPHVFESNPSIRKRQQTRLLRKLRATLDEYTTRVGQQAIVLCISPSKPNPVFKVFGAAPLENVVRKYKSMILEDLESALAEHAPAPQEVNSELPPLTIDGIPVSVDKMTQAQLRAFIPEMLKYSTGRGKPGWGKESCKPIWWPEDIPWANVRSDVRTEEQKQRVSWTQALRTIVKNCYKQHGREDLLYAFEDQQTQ
# B1: RS(WT) / RS(G) (dsDNA)
# DNA 1: GGCGCAGCCGCAGC
# DNA 2: GCTGCGGCTGCGCC
# Target: T1, NRF1 DD-DBD
# Assay: ITC; two-site fit; DNA 500 uM into 50 uM protein; Kd only in Fig 4B; ITC: 50 mM Tris pH 8.0, 100 mM NaCl, 1 mM EDTA, 1 mM DTT, 25 C; EMSA: Thermo 20148 kit, SH-SY5Y nuclear extract
# Conditions: protein: recombinant; cleaved with HRV 3C when needed; chain copies: 2
binder,measurement,value
B1,binding result,binds
